Experimental findings from article PMC8986801, “Activation of the essential kinase PDK1 by phosphoinositide-driven trans-autophosphorylation” (Nature Communications, 2022) are described below.

The data set concerns the molecule itself. The data set can be described thus: SEC-MALS; 50 μl of purified protein injected on Superdex 200 10/300; 50 mM Tris pH 7.5, 100 mM NaCl, 2% glycerol, 1 mM TCEP, 2 mM MgCl2, ±1 mM ATP; self-association (monomer or dimer).

B1: PDK1^SKD-PIF S241A (PIFtide fused through a (GS)4 linker to the C-terminus of the short kinase domain, S241A) (other)
chain: QPRKKRPEDFKFGKILGEGSFSTVVLARELATSREYAIKILEKRHIIKENKVPYVTRERDVMSRLDHPFFVKLYFTFQDDEKLYFGLSYAKNGELLKYIRKIGSFDETCTRFYTAEIVSALEYLHGKGIIHRDLKPENILLNEDMHIQITDFGTAKVLSPESKQARANAFVGTAQYVSPELLTEKSACKSSDLWALGCIIYQLVAGLPPFRAGNEYLIFQKIIKLEYDFPEKFFPKARDLVEKLLVLDATKRLGCEEMEGYGPLKAHPFFESVTWENLHQQTPPKLTGSGSGSGSQEMFRDFDYIADWC
notes: 3-phosphoinositide-dependent kinase 1 (PDK1), human, residues 73-359 (short kinase domain); minimal poly Gly-Ser (GS)4 linker; PIFtide, a peptide derived from the hydrophobic motif of PRK2; also called C-terminal PIFtide SKD fusion S241A; dimer; source: baculovirus-infected Sf9 insect cells, purified (glutathione sepharose, 3C cleavage, HiTrap Q, gel filtration); not shown: GST, N-terminal, …
Turning to B1, the “stoichiometry N” value is 2.
